# In IntAct's records for PubMed 22879593:
# Biological target: USH1C, Q9Y6N9-1
# Sequence (Q9Y6N9 whole entry): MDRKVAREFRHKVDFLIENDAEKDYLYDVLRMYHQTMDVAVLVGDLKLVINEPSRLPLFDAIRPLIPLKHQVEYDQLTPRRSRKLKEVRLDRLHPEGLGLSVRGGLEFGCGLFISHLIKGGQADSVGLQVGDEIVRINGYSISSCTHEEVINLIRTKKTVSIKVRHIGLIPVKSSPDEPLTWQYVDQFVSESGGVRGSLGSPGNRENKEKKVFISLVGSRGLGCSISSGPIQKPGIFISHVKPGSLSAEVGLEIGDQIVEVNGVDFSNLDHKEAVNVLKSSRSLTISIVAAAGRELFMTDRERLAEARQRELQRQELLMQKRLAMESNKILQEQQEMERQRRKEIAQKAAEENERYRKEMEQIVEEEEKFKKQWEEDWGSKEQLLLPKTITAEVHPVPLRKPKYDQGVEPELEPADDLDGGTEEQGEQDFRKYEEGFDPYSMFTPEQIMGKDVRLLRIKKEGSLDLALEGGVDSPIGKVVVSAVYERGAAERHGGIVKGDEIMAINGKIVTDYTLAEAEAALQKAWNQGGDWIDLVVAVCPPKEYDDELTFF
row,Substance,effect of a mutation on the interaction
1,"Cadherin-23 (Homo sapiens), Q9H251 L3228Q",with no effect
2,"Cadherin-23 (Homo sapiens), Q9H251 Y3222E",decreasing interaction strength

# Other lines, results leading:
row,effect of a mutation on the interaction,Substance
1,decreasing interaction strength,"Cadherin-23 (Homo sapiens), Q9H251 L3215Q"
2,decreasing interaction strength,"Cadherin-23 (Homo sapiens), Q9H251 L3219Q"
3,with no effect,"Cadherin-23 (Homo sapiens), Q9H251 L3223Q"
4,with no effect,"Cadherin-23 (Homo sapiens), Q9H251 L3225Q"

# Biological target: USH1C, Q9Y6N9-1
# Remark: another data set of the same source
row,effect of a mutation on the interaction,Substance
1,disrupting interaction strength,"Cadherin-23 (Homo sapiens), Q9H251 L3188Q;L3215Q"
